# B1: hepatocyte growth factor (protein, UniProt P17945 33-495; P17945 496-728, looked up)
# Hepatocyte growth factor …: QKKRRNTLHEFKKSAKTTLTKEDPLVKIKTKKVNSADECANRCIRNKGFPFTCKAFVFDKSRKRCYWYPFNSMSSGVKKGFGHEFDLYENKDYIRNCIIGKGGSYKGTVSITKSGIKCQPWNSMIPHEHSFLPSSYRGKDLQENYCRNPRGEEGGPWCFTSNPEVRYEVCDIPQCSEVECMTCNGESYRGPMDHTESGKTCQRWDQQTPHRHKFLPERYPDKGFDDNYCRNPDGKPRPWCYTLDPDTPWEYCAIKMCAHSAVNETDVPMETTECIKGQGEGYRGTTNTIWNGIPCQRWDSQYPHKHDITPENFKCKDLRENYCRNPDGAESPWCFTTDPNIRVGYCSQIPKCDVSSGQDCYRGNGKNYMGNLSKTRSGLTCSMWDKNMEDLHRHIFWEPDASKLTKNYCRNPDDDAHGPWCYTGNPLVPWDYCPISRCEGDTTPTIVNLDHPVISCAKTKQLR
# Hepatocyte growth factor beta …: VVNGIPTQTTVGWMVSLKYRNKHICGGSLIKESWVLTARQCFPARNKDLKDYEAWLGIHDVHERGEEKRKQILNISQLVYGPEGSDLVLLKLARPAILDNFVSTIDLPSYGCTIPEKTTCSIYGWGYTGLINADGLLRVAHLYIMGNEKCSQHHQGKVTLNESELCAGAEKIGSGPCEGDYGGPLICEQHKMRMVLGVIVPGRGCAIPNRPGIFVRVAYYAKWIHKVILTYKL
# Tested on: Akt
# Experiment: pS473 Akt phosphorylation by pancreatic growth factors
# Format: cell-based
# Details: rat pancreatic acini; data not shown
molecule,measurement,value
B1,pS473 Akt phosphorylation,stimulated pS473 Akt phosphorylation

# — PMC3404614 (Biochimica et Biophysica Acta, 2012)
